Results taken from paper PMC3852661, “Structural basis of SUFU–GLI interaction in human Hedgehog signalling regulation” (Acta Crystallographica Section D: Biological Crystallography, 2013).

Key:
MBP-SUFU-Δ = molecular target: T1, MBP-SUFU-Δ (Homo sapiens, UniProt Q9UMX1, DEL285-359/L360P/P281R/P282G/R280S/S279P); experiment: Thermal stability assay with peptide, MBP-SUFU-Δ; type: binding; settings: 44 µM peptide, 2.2 µM protein, SYPRO Orange, 50 mM Na HEPES pH 7.0, 50 mM NaCl, 5 mM β-mercaptoethanol; triplicate
T1 construct: subcloning different SUFU32–483 variants into vector pLJMBP4c; His tag (as in MBP-SUFU-FL; purified on HisTrap) (C); made in house; host or cells: Escherichia coli JM109 (DE3)
T1 sequence (Q9UMX1 with tags, fused parts or gaps S279P/R280S/P281R/P282G/DEL285-359/L360P limits assumed, other chains not shown): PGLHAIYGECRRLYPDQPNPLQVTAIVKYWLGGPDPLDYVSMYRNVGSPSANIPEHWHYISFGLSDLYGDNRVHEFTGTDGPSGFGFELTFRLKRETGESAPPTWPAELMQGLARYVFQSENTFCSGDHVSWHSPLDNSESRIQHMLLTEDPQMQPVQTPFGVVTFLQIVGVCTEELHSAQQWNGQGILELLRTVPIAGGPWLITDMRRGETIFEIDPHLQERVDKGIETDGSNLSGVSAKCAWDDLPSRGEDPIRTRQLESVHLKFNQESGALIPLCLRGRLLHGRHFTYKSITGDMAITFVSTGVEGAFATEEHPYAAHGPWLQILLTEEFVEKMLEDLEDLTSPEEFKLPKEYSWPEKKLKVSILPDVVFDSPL
Procedure: Recombinant MBP-SUFU proteins were diluted to 2.6 μM in 50 mM Na HEPES pH 7.0, 50 mM NaCl, 5 mM β-mercaptoethanol; the peptides GLI1p and GLI1p-SH (Supplementary Table S1b), synthesized by Dr W. Mawby (University of Bristol), were dissolved in the same buffer. Proteins were spun at 14 000g for 20 min at 4°C before adding SYPRO Orange (Molecular Probes) to a final concentration of 6×. Reaction volumes of 25 μl were prepared in 96-well PCR plates with 2.2 μM protein/SYPRO Orange solution and, where applicable, 44 μM peptide. Plates were sealed with optical tape, heated from 20 to 90°C in 12 s 0.2°C steps in an iCycler and fluorescence was detected using an excitation wavelength of 470 nm and an emission wavelength of 570 nm. To determine whether the IDR affects the GLI-binding properties of SUFU, we used a human GLI1-derived peptide (GLI1p; residues 115-131; Supplementary Table S1b) containing the highly conserved SYGH motif important for interaction with SUFU (Dunaeva et al., 2003[▶]) in a thermal stability assay with MBP-SUFU-FL and MBP-SUFU-Δ (Fig. 4 ▶ a). The addition of GLI1p stabilized both proteins: T m for MBP-SUFU-FL was shifted by 4°C and that for MBP-SUFU-Δ was shifted by 3.6°C. […] The GLI1 dose dependency of this effect was confirmed in a separate experiment with increasing GLI1p concentrations (Supplementary Fig. […]).

MBP-SUFU-FL = molecular target: T2, MBP-SUFU-FL (Homo sapiens, UniProt Q9UMX1); experiment: SYPRO Orange initial fluorescence upon peptide addition, MBP-SUFU-FL; type: binding; settings: excitation 470 nm, emission 570 nm, pH 7.0
T2 construct: containing residues 32–483 of human SUFU and a C-terminal hexahistidine tag; hexahistidine tag (C); made in house; host or cells: Escherichia coli JM109 (DE3)
T2 sequence (Q9UMX1 32-483, other chains not shown): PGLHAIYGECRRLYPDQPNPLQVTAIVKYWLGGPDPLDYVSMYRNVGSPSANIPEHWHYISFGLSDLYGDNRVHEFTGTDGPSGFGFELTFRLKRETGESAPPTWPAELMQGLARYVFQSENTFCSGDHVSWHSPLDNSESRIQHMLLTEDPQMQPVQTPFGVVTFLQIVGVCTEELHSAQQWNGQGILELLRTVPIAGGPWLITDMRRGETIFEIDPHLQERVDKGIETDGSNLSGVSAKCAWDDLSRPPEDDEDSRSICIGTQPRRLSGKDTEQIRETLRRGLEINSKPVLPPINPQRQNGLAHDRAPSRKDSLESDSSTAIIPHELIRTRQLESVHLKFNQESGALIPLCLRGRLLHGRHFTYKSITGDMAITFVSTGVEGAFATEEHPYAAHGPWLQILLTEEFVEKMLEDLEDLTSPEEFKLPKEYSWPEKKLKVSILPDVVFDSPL
Procedure: (§1) Recombinant MBP-SUFU proteins were diluted to 2.6 µM in 50 mM Na HEPES pH 7.0, 50 mM NaCl, 5 mM β-mercaptoethanol; the peptides GLI1p and GLI1p-SH (Supplementary Table S1b), synthesized by Dr W. Mawby (University of Bristol), were dissolved in the same buffer. Proteins were spun at 14 000g for 20 min at 4°C before adding SYPRO Orange (Molecular Probes) to a final concentration of 6×. Reaction volumes of 25 µl were prepared in 96-well PCR plates with 2.2 µM protein/SYPRO Orange solution and, where applicable, 44 µM peptide. Plates were sealed with optical tape, heated from 20 to 90°C in 12 s 0.2°C steps in an iCycler and fluorescence was detected using an excitation wavelength of 470 nm and an emission wavelength of 570 nm.
Recombinant MBP-SUFU constructs were diluted to 2.5 µM in 50 mM Na HEPES pH 7.0, 50 mM NaCl, 5 mM β-mercaptoethanol and spun at 14 000g for 20 min at 4°C before the addition of SYPRO Orange to a final 5× concentration of dye. The fluorescence of 100 µl samples was measured in black 96-well plates (Nunc) using excitation at λ = 470 nm and emission at λ = 570 nm. GLI1p or GLI1p-SH peptides prepared in the same buffer as above were added in the given ratios and mixed before a second reading was taken. Readings post-peptide addition were divided by the corresponding pre-peptide addition measurements to obtain normalized results. […]

MBP-SUFU-SH = experiment: Thermal stability assay with peptide, MBP-SUFU-SH; type: binding, human; settings: 44 µM peptide, 2.2 µM protein, SYPRO Orange, pH 7.0; triplicate
Chain of MBP-SUFU-SH (Q9UMX1 32-278 limits assumed): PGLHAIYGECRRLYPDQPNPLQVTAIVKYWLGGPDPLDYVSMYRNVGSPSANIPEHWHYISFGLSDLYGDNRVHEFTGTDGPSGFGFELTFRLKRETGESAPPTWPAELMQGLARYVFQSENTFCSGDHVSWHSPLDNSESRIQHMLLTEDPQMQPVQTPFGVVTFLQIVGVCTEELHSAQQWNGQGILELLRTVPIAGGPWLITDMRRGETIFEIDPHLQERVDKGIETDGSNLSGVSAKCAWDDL
Chain of MBP-SUFU-SH (Q9UMX1 361-483 limits assumed): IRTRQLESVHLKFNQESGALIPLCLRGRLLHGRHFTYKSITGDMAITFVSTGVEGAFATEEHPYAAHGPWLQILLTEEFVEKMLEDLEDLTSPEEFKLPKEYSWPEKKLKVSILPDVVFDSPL
Procedure: as §1
Figure 4 The SUFU IDR has distinct structural properties. (a) Thermal stability assays of MBP-SUFU constructs performed in triplicate, either alone (blue) or with GLI1p (red) or GLI1p-SH (green). […] (b) Microscale thermophoresis experiments with FAM-GLI1p and titrated MBP-SUFU constructs, showing an average of three separate experiments. All proteins have similar affinity, but the thermophoretic properties of FAM-GLI1p are modified differently between the MBP-SUFU-FL construct and the MBP-SUFU-Δ and MBP-SUFU-SH constructs, reflecting a difference in shape.

Tm shift (MBP-SUFU-Δ): 3.6 °C | initial fluorescence upon addition of GLI1p (MBP-SUFU-FL): high initial fluorescence values | binding (MBP-SUFU-SH): All constructs bind to GLI1p
Substance: GLI1p: human GLI1-derived peptide; residues 115–131, containing the highly conserved SYGH motif (TSPGGSYGHLSIGTMSP)
